Reference: article PMC8882189, “Identification of Nanog as a novel inhibitor of Rad51” (Cell Death & Disease, 2022)

Target: T1, His-tagged Rad51 (mouse, UniProt Q08297 1-339)
T1 construct: Rad51, mouse; The bacterial expression construct is not described; source: bacterially expressed, purified (Ni superflow beads)
T1 sequence (looked up): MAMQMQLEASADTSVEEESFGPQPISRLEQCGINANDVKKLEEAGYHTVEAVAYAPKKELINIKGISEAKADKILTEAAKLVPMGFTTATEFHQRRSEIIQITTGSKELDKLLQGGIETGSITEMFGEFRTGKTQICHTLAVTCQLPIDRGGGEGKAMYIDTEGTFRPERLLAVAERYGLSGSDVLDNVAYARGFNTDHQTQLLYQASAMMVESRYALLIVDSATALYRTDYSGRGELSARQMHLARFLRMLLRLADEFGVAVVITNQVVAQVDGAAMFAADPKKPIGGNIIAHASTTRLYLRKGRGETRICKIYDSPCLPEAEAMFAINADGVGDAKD
Assay: pull-down; purified GST-tagged Nanog or fragments on glutathione-sepharose beads, incubated with purified His-tagged Rad51 at 4 °C overnight; washed 4 times with lysis buffer; western blot with anti-Rad51
Conditions: both partners purified

binding result: binds
B1: GST-tagged Nanog (natural protein, mouse, UniProt Q80Z64 1-305, looked up)
chain: MSVGLPGPHSLPSSEEASNSGNASSMPAVFHPENYSCLQGSATEMLCTEAASPRPSSEDLPLQGSPDSSTSPKQKLSSPEADKGPEEEENKVLARKQKMRTVFSQAQLCALKDRFQKQKYLSLQQMQELSSILNLSYKQVKTWFQNQRMKCKRWQKNQWLKTSNGLIQKGSAPVEYPSIHCSYPQGYLVNASGSLSMWGSQTWTNPTWSSQTWTNPTWNNQTWTNPTWSSQAWTAQSWNGQPWNAAPLHNFGEDFLQPYVQLQQNFSASDLEVNLEATRESHAHFSTPQALELFLNYSVTPPGEI
notes: Nanog, mouse; The bacterial expression construct is not described; also called full-length Nanog; FL; source: E. coli BL21, purified (Glutathione-Sepharose)
